According to patent publication US20240261333A1 (published 2024):

Assays:
Assay in all cases: co-IP, anti-FLAG, lysate of cells with N-FLAG B3GNT2; mass spectrometry
HNRNPA2B1 = target: T1, HNRNPA2B1 (human, UniProt P22626-2 1-341)
T1 construct: also called NP_002128.1 (+1)

RPL10 = RPL10 (human, UniProt P27635 2-214)
PUM1 = target: T2, PUM1 (human, UniProt Q14671-3 2-1188, limits assumed)
T2 construct: also called NP_00108494.1 (+1)
T2 sequence (looked up): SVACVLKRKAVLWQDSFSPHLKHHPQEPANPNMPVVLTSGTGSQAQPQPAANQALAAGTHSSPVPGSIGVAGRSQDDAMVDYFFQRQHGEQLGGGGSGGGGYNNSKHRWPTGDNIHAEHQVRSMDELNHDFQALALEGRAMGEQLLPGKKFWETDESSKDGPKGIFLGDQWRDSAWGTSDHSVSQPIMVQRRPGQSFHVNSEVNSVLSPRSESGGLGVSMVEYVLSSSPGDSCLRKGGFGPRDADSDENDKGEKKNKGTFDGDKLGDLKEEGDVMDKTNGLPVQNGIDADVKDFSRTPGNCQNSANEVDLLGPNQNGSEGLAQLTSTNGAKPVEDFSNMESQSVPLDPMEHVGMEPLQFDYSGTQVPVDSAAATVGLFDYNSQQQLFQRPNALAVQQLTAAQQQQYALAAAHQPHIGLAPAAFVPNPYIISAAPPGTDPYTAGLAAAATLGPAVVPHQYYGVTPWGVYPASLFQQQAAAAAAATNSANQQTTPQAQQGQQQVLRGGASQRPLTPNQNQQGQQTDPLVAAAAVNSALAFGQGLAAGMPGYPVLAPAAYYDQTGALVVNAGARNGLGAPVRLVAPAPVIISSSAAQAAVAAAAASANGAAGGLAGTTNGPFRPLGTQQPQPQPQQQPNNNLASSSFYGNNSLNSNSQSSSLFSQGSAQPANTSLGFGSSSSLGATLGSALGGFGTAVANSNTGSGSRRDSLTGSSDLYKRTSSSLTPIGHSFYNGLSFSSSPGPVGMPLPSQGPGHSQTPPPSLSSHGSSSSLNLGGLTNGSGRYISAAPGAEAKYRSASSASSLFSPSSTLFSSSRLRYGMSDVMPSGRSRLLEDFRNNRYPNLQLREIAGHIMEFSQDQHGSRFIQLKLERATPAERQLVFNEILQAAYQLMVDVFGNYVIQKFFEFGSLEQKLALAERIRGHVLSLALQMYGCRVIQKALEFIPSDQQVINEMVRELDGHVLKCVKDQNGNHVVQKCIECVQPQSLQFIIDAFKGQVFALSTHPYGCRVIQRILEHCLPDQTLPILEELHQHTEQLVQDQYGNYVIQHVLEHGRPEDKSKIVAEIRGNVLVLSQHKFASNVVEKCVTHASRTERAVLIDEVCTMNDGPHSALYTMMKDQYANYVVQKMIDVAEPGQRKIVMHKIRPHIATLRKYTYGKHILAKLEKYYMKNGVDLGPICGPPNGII

RPS3 = RPS3 (human, UniProt P23396 2-243)
PARP1 = target: T3, PARP1 (human, UniProt P09874 2-1014)
T3 construct: also called NP_001609.2
T3 sequence (P09874 2-1014 limits assumed): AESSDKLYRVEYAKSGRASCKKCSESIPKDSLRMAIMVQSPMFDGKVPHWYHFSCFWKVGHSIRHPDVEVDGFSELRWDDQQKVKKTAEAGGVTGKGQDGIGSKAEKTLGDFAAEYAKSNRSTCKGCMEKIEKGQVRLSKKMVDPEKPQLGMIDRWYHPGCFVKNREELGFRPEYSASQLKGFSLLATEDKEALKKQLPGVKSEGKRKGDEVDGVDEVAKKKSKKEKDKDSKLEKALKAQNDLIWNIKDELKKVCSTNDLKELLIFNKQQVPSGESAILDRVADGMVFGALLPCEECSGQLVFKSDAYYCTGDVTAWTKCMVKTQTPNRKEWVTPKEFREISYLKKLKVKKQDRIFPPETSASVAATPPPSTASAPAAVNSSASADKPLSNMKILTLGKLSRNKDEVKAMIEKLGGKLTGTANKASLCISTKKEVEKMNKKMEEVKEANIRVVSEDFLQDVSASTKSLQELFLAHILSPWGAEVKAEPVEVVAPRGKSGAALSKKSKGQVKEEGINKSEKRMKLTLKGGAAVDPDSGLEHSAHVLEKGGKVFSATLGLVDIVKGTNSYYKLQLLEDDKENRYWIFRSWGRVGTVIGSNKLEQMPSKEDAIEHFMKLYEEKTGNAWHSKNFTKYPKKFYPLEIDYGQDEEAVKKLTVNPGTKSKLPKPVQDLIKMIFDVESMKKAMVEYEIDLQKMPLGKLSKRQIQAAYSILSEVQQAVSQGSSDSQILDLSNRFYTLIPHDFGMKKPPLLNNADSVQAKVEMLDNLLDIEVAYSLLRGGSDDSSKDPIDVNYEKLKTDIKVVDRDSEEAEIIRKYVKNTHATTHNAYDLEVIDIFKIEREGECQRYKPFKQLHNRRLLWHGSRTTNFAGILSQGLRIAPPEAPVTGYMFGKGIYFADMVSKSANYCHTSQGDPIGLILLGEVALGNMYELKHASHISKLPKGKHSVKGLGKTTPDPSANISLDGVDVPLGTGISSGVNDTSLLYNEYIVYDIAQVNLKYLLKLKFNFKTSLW

T1 sequence (P22626 other isoform, or with tags, fused parts or gaps limits assumed): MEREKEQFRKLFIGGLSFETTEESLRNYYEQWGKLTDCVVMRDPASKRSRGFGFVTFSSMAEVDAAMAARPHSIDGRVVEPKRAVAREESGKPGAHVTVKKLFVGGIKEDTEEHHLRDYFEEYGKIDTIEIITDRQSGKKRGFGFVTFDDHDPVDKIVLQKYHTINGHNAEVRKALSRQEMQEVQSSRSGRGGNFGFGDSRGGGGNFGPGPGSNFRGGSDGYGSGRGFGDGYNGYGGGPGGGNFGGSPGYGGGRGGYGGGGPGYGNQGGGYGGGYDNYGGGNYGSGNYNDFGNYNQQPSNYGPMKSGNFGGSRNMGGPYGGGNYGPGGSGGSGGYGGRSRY

B1: N-terminal FLAG tagged B3GNT2 (enzyme, human, UniProt Q9NY97 1-397, looked up)
chain: MSVGRRRIKLLGILMMANVFIYFIMEVSKSSSQEKNGKGEVIIPKEKFWKISTPPEAYWNREQEKLNRQYNPILSMLTNQTGEAGRLSNISHLNYCEPDLRVTSVVTGFNNLPDRFKDFLLYLRCRNYSLLIDQPDKCAKKPFLLLAIKSLTPHFARRQAIRESWGQESNAGNQTVVRVFLLGQTPPEDNHPDLSDMLKFESEKHQDILMWNYRDTFFNLSLKEVLFLRWVSTSCPDTEFVFKGDDDVFVNTHHILNYLNSLSKTKAKDLFIGDVIHNAGPHRDKKLKYYIPEVVYSGLYPPYAGGGGFLYSGHLALRLYHITDQVHLYPIDDVYTGMCLQKLGLVPEKHKGFRTFDIEEKNKNNICSYVDLMLVHSRKPQEMIDIWSQLQSAHLKC
notes: Overexpressed in cells and pulled down from the lysate with mouse anti-FLAG antibody; also called N-FLAG B3GNT2; N-term FLAG; not shown: N-terminal FLAG tag
- co-IP mass spectrometry count (HNRNPA2B1): 7
- co-IP mass spectrometry count (RPL10): 4
- co-IP mass spectrometry count (PUM1): 0
- co-IP mass spectrometry count (RPS3): 10
- co-IP mass spectrometry count (PARP1): 0
